# In the supplement of paper PMC9112550, “Optimization of the antimicrobial peptide Bac7 by deep mutational scanning” (BMC Biology, 2022):
# Tested on: Escherichia coli TOP10
# Test: shrunken log2 fold change of peptide-encoding DNA abundance (4.5 h post-induction vs induction); higher = less antimicrobial activity (less host growth inhibition)
# Settings: time post-induction: 4.5 h; library: site-saturation at positions 5, 18, 19, 20
# 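Further: peptides expressed intracellularly from a pBAD plasmid library in pooled LB shake-flask culture, induced with 0.3% L-arabinose, DNA abundance read by NGS, three biological replicates, DESeq2 with apeglm shrinkage.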
row,Sequence,shrunken log2 fold change
1,RRIRYRPPRLPRPRPRPCENPRP,-0.215
2,RRIRQRPPRLPRPRPRPFWPPRP,0.083
3,RRIRMRPPRLPRPRPRPTKSPRP,0.459
4,RRIRARPPRLPRPRPRPIKYPRP,-0.38
5,RRIRGRPPRLPRPRPRPLYVPRP,0.0628
6,RRIRGRPPRLPRPRPRPISGPRP,0.000749
7,RRIRFRPPRLPRPRPRPPELPRP,0.106
8,RRIRLRPPRLPRPRPRPVNNPRP,-0.269
9,RRIRYRPPRLPRPRPRPSDQPRP,-0.235
10,RRIRARPPRLPRPRPRPNCKPRP,-0.0213
11,RRIRKRPPRLPRPRPRPPQQPRP,0.346
12,RRIRWRPPRLPRPRPRPPWQPRP,0.289
13,RRIRLRPPRLPRPRPRPANGPRP,0.115
14,RRIRMRPPRLPRPRPRPGDCPRP,0.548
15,RRIRTRPPRLPRPRPRPGVGPRP,0.546
16,RRIRVRPPRLPRPRPRPFWKPRP,0.0154
17,RRIRERPPRLPRPRPRPQFMPRP,0.0848
18,RRIRARPPRLPRPRPRPWVHPRP,-0.162
19,RRIRSRPPRLPRPRPRPVHNPRP,0.0673
20,RRIRKRPPRLPRPRPRPFAIPRP,-0.00592
21,RRIRGRPPRLPRPRPRPCMKPRP,0.507
22,RRIRYRPPRLPRPRPRPERAPRP,0.173

row,Sequence,shrunken log2 fold change
1,RRIRYRPPRLPRPRPRPYQYPRP,-1.05
2,RRIRLRPPRLPRPRPRPYGTPRP,-0.68
3,RRIRPRPPRLPRPRPRPCTYPRP,-0.253
4,RRIRKRPPRLPRPRPRPDDRPRP,0.0147
5,RRIRLRPPRLPRPRPRPPNPPRP,0.423
6,RRIRQRPPRLPRPRPRPGIVPRP,0.0144
7,RRIRNRPPRLPRPRPRPTVFPRP,0.0462
8,RRIRKRPPRLPRPRPRPFGNPRP,-0.171
9,RRIRLRPPRLPRPRPRPKPAPRP,0.679
10,RRIRQRPPRLPRPRPRPKRIPRP,-0.0308
11,RRIRWRPPRLPRPRPRPPWIPRP,1.44
12,RRIRVRPPRLPRPRPRPHDGPRP,0.0377
13,RRIRGRPPRLPRPRPRPPFSPRP,0.444
14,RRIRFRPPRLPRPRPRPSLTPRP,-0.413
15,RRIRFRPPRLPRPRPRPHEKPRP,-0.0136
16,RRIRIRPPRLPRPRPRPSPMPRP,-0.2
17,RRIRHRPPRLPRPRPRPSEPPRP,-0.206
18,RRIRGRPPRLPRPRPRPMEVPRP,-0.121
19,RRIRSRPPRLPRPRPRPIEHPRP,-0.0344
20,RRIRKRPPRLPRPRPRPPTFPRP,0.149
21,RRIRMRPPRLPRPRPRPDWVPRP,0.0143
22,RRIRTRPPRLPRPRPRPSSHPRP,-0.669

row,Sequence,shrunken log2 fold change
1,RRIRRRPPRLPRPRPRPRRHPRP,0.218
2,RRIRWRPPRLPRPRPRPYRLPRP,0.00724
3,RRIRLRPPRLPRPRPRPNYNPRP,-0.74
4,RRIRNRPPRLPRPRPRPNNWPRP,-0.0773
5,RRIRQRPPRLPRPRPRPPQHPRP,0.718
6,RRIRNRPPRLPRPRPRPVTQPRP,0.0396
7,RRIRNRPPRLPRPRPRPDSQPRP,-0.0699
8,RRIRMRPPRLPRPRPRPWAMPRP,0.0684
9,RRIRYRPPRLPRPRPRPKDVPRP,-0.0107
10,RRIRGRPPRLPRPRPRPAGSPRP,1.06
11,RRIRCRPPRLPRPRPRPMLTPRP,-0.0319
12,RRIRQRPPRLPRPRPRPYCHPRP,-0.0183
13,RRIRPRPPRLPRPRPRPYPLPRP,-0.861
14,RRIRRRPPRLPRPRPRPHDDPRP,0.341
15,RRIRMRPPRLPRPRPRPGSIPRP,0.239
16,RRIRFRPPRLPRPRPRPHLHPRP,-0.511
17,RRIRRRPPRLPRPRPRPTYHPRP,0.648
18,RRIRMRPPRLPRPRPRPPYGPRP,0.294
19,RRIRMRPPRLPRPRPRPDWAPRP,0.469
20,RRIRIRPPRLPRPRPRPPYRPRP,-0.468
21,RRIRLRPPRLPRPRPRPQYDPRP,-0.155
22,RRIRKRPPRLPRPRPRPLWFPRP,0.107

row,Sequence,shrunken log2 fold change
1,RRIRCRPPRLPRPRPRPNWGPRP,-0.0514
2,RRIRARPPRLPRPRPRPIDIPRP,0.0327
3,RRIRQRPPRLPRPRPRPRKCPRP,0.158
4,RRIRERPPRLPRPRPRPLAGPRP,-0.113
5,RRIRIRPPRLPRPRPRPNIEPRP,-0.0607
6,RRIRRRPPRLPRPRPRPEKNPRP,0.289
7,RRIRIRPPRLPRPRPRPHNEPRP,-1.35
8,RRIRFRPPRLPRPRPRPSWWPRP,0.212
9,RRIRLRPPRLPRPRPRPALGPRP,0.935
10,RRIRVRPPRLPRPRPRPNCAPRP,0.289
11,RRIRTRPPRLPRPRPRPHNTPRP,-0.346
12,RRIRCRPPRLPRPRPRPAWEPRP,0.0219
13,RRIRHRPPRLPRPRPRPKCPPRP,-0.0954
14,RRIRARPPRLPRPRPRPIQEPRP,0.116
15,RRIRPRPPRLPRPRPRPYQDPRP,-0.025
16,RRIRLRPPRLPRPRPRPPDWPRP,0.427
17,RRIRIRPPRLPRPRPRPPSTPRP,0.0126
18,RRIRQRPPRLPRPRPRPVATPRP,-0.00506
19,RRIRPRPPRLPRPRPRPQDKPRP,-0.00457
20,RRIRSRPPRLPRPRPRPMYEPRP,0.0571
21,RRIRFRPPRLPRPRPRPGQLPRP,-0.0429
22,RRIRSRPPRLPRPRPRPRAEPRP,0.492

row,Sequence,shrunken log2 fold change
1,RRIRGRPPRLPRPRPRPKVIPRP,0.197
2,RRIRNRPPRLPRPRPRPHFAPRP,0.0588
3,RRIRTRPPRLPRPRPRPQEDPRP,-0.01
4,RRIRDRPPRLPRPRPRPSPLPRP,-0.126
5,RRIRERPPRLPRPRPRPPGFPRP,0.479
6,RRIRQRPPRLPRPRPRPNEIPRP,-0.217
7,RRIRDRPPRLPRPRPRPEQWPRP,-0.0491
8,RRIRWRPPRLPRPRPRPFHEPRP,-0.0657
9,RRIRNRPPRLPRPRPRPDDTPRP,0.0119
10,RRIRPRPPRLPRPRPRPVAFPRP,-0.0622
11,RRIRDRPPRLPRPRPRPMQRPRP,-0.00663
12,RRIRYRPPRLPRPRPRPWNAPRP,-0.397
13,RRIRDRPPRLPRPRPRPNVQPRP,-0.131
14,RRIRVRPPRLPRPRPRPQRCPRP,0.00942
15,RRIRMRPPRLPRPRPRPCYYPRP,-0.199
16,RRIRIRPPRLPRPRPRPERPPRP,0.285
17,RRIRMRPPRLPRPRPRPPTIPRP,0.301
18,RRIRPRPPRLPRPRPRPQISPRP,-0.221
19,RRIRIRPPRLPRPRPRPPALPRP,0.0147
20,RRIRVRPPRLPRPRPRPINEPRP,-0.3
21,RRIRCRPPRLPRPRPRPQASPRP,-0.000207
